From IntAct's records for PubMed 15294869

Target: pir_arath PIR (UniProt Q5S2C3)
Sequence (Q5S2C3 whole entry): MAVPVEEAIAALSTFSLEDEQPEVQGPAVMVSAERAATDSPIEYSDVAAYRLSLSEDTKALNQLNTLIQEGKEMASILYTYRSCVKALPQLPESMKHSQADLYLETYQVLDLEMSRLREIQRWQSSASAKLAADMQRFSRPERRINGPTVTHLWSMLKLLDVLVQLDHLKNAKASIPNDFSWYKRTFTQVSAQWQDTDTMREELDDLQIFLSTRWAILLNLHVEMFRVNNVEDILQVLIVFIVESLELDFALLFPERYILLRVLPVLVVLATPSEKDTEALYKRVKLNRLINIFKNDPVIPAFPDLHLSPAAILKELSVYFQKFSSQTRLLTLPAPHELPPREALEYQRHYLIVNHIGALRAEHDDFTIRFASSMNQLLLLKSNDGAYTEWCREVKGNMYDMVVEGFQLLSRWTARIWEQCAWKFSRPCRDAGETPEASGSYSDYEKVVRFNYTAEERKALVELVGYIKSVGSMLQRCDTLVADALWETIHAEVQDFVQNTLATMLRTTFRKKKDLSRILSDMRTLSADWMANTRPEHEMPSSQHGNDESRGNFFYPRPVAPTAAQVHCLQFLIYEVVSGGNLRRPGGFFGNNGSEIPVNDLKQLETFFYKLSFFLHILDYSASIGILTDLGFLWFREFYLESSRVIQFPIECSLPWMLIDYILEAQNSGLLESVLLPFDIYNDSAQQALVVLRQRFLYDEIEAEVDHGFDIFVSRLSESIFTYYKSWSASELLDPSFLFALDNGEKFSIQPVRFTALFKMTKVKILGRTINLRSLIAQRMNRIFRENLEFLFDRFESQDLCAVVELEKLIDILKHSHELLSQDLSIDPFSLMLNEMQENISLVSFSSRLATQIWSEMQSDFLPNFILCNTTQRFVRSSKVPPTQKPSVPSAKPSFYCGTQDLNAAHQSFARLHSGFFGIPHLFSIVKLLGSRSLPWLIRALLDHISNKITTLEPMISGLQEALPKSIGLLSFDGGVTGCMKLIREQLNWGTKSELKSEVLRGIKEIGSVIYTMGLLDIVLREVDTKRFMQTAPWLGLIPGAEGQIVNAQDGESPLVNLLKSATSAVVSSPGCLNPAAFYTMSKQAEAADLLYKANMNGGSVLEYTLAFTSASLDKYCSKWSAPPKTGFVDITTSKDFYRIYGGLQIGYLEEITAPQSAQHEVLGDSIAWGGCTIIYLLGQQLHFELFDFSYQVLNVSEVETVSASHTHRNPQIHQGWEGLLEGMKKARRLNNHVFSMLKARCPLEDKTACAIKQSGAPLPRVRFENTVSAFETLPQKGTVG

Rac-like GTP-binding protein ARAC4 (Arabidopsis thaliana (Mouse-ear cress)), Q38919 D120A, sequence (Q38919 whole entry D120A): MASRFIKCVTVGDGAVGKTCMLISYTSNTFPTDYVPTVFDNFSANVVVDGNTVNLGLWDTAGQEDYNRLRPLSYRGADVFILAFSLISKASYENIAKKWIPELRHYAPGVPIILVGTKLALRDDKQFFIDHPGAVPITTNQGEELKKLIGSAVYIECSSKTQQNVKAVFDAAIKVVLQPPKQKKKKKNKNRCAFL
Rac-like GTP-binding protein ARAC4 (Arabidopsis thaliana (Mouse-ear cress)), Q38919 T19N, sequence (Q38919 whole entry T19N): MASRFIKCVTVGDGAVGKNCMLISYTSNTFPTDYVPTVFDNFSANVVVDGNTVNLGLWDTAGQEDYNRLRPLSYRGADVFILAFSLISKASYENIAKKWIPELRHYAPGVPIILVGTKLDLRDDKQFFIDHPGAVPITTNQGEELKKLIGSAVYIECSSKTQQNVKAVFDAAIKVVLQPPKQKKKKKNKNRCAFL

Substance | effect of a mutation on the interaction
Rac-like GTP-binding protein ARAC4 (Arabidopsis thaliana (Mouse-ear cress)), Q38919 D120A | disrupting interaction
Rac-like GTP-binding protein ARAC4 (Arabidopsis thaliana (Mouse-ear cress)), Q38919 T19N | disrupting interaction
